B1: Hammerhead Ribozyme (parent)
chain: ACCGGAUGUGCUUUCCGGUCUGAUGAGUCCGUGAGGACGAAACAG

The data set covers variants of B1. In words: self-cleavage, relative activity (ratio to wild type); higher = more cleavage; co-transcriptional.
As for U7C G35A, the self-cleavage was 0.732. The figure for U7C G35U is 0.439.

For U7C G35C, the self-cleavage is 0.849. The figure for A6U G22A is 0.289; for A6U G22U it is 0.397; for A6U G22C it is 0.354.

For U7A U28A, the self-cleavage is 0.77. Turning to U7A U28G, the self-cleavage came out at 0.758.

Regarding U7A U28C, the self-cleavage was 1.26. For U7A C30U, the self-cleavage stood at 1.05. The same measure for U7A C30G: 1.05; for U7A C30A: 1.09; for U7A G22C: 0.309.

With U7A G22A, the self-cleavage is 0.291.

On to U7A G22U, for which the self-cleavage came to 0.231. U7G A23U: the self-cleavage came out at 0.228. The same measure for U7G A23G: 0.273; for U7G A23C: 0.243; for U7C U24C: 1.24.

As for U7C U24A, the self-cleavage was determined as 1.4. As for U7C U24G, the self-cleavage is 0.742.

As for U7A A40G, the self-cleavage came out at 0.298. The same measure for U7A A40U: 0.244.

Regarding U7A A40C, the self-cleavage stood at 0.261.

Regarding U7C G22C, the self-cleavage was 0.338. The figure for U7C G22A is 0.387. The same measure for U7C G22U: 0.289; for A6U U7A: 0.609. As to A6U U7C, the self-cleavage stood at 0.356. The figure for A6U U7G is 0.829.

For U7A C15G, the self-cleavage stood at 0.987.

U7A C15U: the self-cleavage amounted to 1.04. Take U7A C15A: the self-cleavage turned out to be 0.852. Turning to U7A G35U, the self-cleavage is 0.751. Consider U7A G35C, for which the self-cleavage is 0.707.

Turning to U7A G35A, the self-cleavage was found to be 0.687. The figure for U7C G17C is 0.314; for U7C G17A it is 0.32; for U7C G17U it is 0.625. With U7C U21G, the self-cleavage amounted to 0.449. U7C U21A: the self-cleavage stood at 0.327. The figure for U7C U21C is 0.403; for A6U U28C it is 0.638; for A6U U28A it is 0.377. On to A6U U28G, for which the self-cleavage worked out at 0.373. Consider U7A U32A, for which the self-cleavage is 1.38. The same measure for U7A U32C: 0.797; for U7A U32G: 1.07; for A6U U19G: 0.395.

As to A6U U19C, the self-cleavage is 0.47. The same measure for A6U U19A: 0.337; for A6U G36U: 0.391; for A6U G36C: 0.334. As for A6U G36A, the self-cleavage was determined as 0.44. As for A6U C38G, the self-cleavage was 0.458. With A6U C38U, the self-cleavage came to 0.627. The figure for A6U C38A is 0.511; for U7A C43U it is 0.302. The figure for U7A C43A is 0.317; for U7A C43G it is 0.237. The same measure for A6U U13G: 0.616. On to A6U U13C, for which the self-cleavage was 1.02. Regarding A6U U13A, the self-cleavage was found to be 0.747.

As for U7C G33C, the self-cleavage was found to be 0.963. For the variant U7C G33A, the self-cleavage was determined as 1.15. The figure for U7C G33U is 0.755. Turning to U7A G33U, the self-cleavage was found to be 1.14. As to U7A G33A, the self-cleavage turned out to be 1.45. The same measure for U7A G33C: 1.44.

On to A6U G27C, for which the self-cleavage came to 0.552. The figure for A6U G27A is 0.614; for A6U G27U it is 0.395; for U7C G45C it is 0.454. The same measure for U7C G45U: 0.622; for U7C G45A: 0.653.

For the variant U7C A34U, the self-cleavage is 0.995. The figure for U7C A34C is 1.16; for U7C A34G it is 0.863. With A6U G33C, the self-cleavage stood at 0.551. Regarding A6U G33A, the self-cleavage amounted to 0.793. The figure for A6U G33U is 0.403. The same measure for U7C C30G: 1.09; for U7C C30U: 0.842; for U7C C30A: 0.736.

Turning to U7G A41U, the self-cleavage was found to be 0.342. U7G A41G: the self-cleavage was determined as 0.408. The same measure for U7G A41C: 0.422; for A6U G10U: 0.747.

As for A6U G10C, the self-cleavage was 0.522.

Regarding A6U G10A, the self-cleavage stood at 0.75. The figure for U7C A42U is 0.312.

With U7C A42C, the self-cleavage is 0.3. The same measure for U7C A42G: 0.306. The figure for U7C U12A is 1.42; for U7C U12C it is 1.09.

Consider U7C U12G, for which the self-cleavage was 1.43. Turning to U7C G39A, the self-cleavage turned out to be 0.469. The same measure for U7C G39C: 0.331; for U7C G39U: 0.426. The figure for U7A G31A is 1.28; for U7A G31U it is 1.26; for U7A G31C it is 1.28.

Take U7C G27A: the self-cleavage amounted to 0.814. As for U7C G27C, the self-cleavage is 0.598.

U7C G27U: the self-cleavage was 0.412.

Take U7A G8U: the self-cleavage came out at 1.52.

In the case of U7A G8A, the self-cleavage amounted to 1.23. The figure for U7A G8C is 1.21; for U7A U21C it is 0.628; for U7A U21A it is 0.359. The same measure for U7A U21G: 0.319; for A6U G25U: 0.355. As to A6U G25C, the self-cleavage came out at 0.259. On to A6U G25A, for which the self-cleavage was determined as 0.308. Turning to U7A G17C, the self-cleavage came to 0.481. For the variant U7A G17U, the self-cleavage was 0.524. Take U7A G17A: the self-cleavage amounted to 0.498. The same measure for U7A C20A: 0.298; for U7A C20U: 0.345; for U7A C20G: 0.376.

As to A6U U12G, the self-cleavage was 0.447.

Turning to A6U U12C, the self-cleavage stood at 0.716.

On to A6U U12A, for which the self-cleavage is 0.538. The same measure for U7A U14G: 1.14. Turning to U7A U14C, the self-cleavage came to 1.17.

As for U7A U14A, the self-cleavage is 1.15. With U7C G18A, the self-cleavage came to 0.438. The same measure for U7C G18C: 0.342; for U7C G18U: 0.61; for U7A C29G: 0.663. The figure for U7A C29A is 0.511; for U7A C29U it is 0.823; for U7G A34G it is 1.67.

U7G A34C: the self-cleavage was found to be 1.44. Turning to U7G A34U, the self-cleavage was 1.53. On to U7A G45C, for which the self-cleavage amounted to 0.566. The same measure for U7A G45A: 0.427.

Regarding U7A G45U, the self-cleavage is 0.484. For the variant U7A G27A, the self-cleavage came to 0.66.

For the variant U7A G27U, the self-cleavage amounted to 0.32. The same measure for U7A G27C: 0.449. The same measure for U7A G39U: 0.289.

In the case of U7A G39A, the self-cleavage turned out to be 0.27.

Take U7A G39C: the self-cleavage was determined as 0.321. Take U7A G36A: the self-cleavage amounted to 0.681.

With U7A G36C, the self-cleavage turned out to be 0.394. The figure for U7A G36U is 0.585; for U7C U9C it is 1.28. In the case of U7C U9A, the self-cleavage was 0.524. The figure for U7C U9G is 0.667; for A6U U21G it is 0.449; for A6U U21C it is 0.616. The same measure for A6U U21A: 0.517; for U7A A41U: 0.258. The same measure for U7A A41G: 0.368. As for U7A A41C, the self-cleavage stood at 0.407.

As to U7C G36C, the self-cleavage was 0.348.

Regarding U7C G36U, the self-cleavage worked out at 0.422. The same measure for U7C G36A: 0.421; for A6U G35C: 0.473; for A6U G35A: 0.505.

For the variant A6U G35U, the self-cleavage was 0.499. In the case of U7A A37C, the self-cleavage is 1.12. As for U7A A37U, the self-cleavage is 0.497. The same measure for U7A A37G: 0.907. Turning to U7A A44C, the self-cleavage is 0.397.

With U7A A44U, the self-cleavage came out at 0.375.

Values taken from the RNAGym collection of RNA variant scans (doi:10.7554/elife.80360).
